Assays:
Assay in all cases: BLI
CCL11_HUMAN = CCL11_HUMAN (human, UniProt P51671 24-97)
CCL18_HUMAN = target: T1, CCL18_HUMAN (human, UniProt P55774 21-89)
T1 sequence: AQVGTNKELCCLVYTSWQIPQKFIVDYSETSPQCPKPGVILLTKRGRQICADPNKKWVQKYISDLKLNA

CCL23_HUMAN = target: T2, CCL23_HUMAN (human, UniProt P55773 22-120)
T2 sequence: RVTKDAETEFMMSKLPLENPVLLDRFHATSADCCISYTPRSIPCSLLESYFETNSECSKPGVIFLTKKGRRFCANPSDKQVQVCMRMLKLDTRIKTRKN

CCL27_HUMAN = target: T3, CCL27_HUMAN (human, UniProt Q9Y4X3 25-112)
T3 sequence: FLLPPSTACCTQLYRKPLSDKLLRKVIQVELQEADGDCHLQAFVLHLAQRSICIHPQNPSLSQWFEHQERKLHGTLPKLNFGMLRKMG

CCL2_HUMAN = CCL2_HUMAN (human, UniProt P13500 24-99)
CCL2_HUMAN, sequence (P13500 24-99 limits assumed): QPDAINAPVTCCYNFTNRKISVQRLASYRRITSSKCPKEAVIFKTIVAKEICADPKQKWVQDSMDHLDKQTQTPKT

CCL3L1_HUMAN = target: T4, CCL3L1_HUMAN (human, UniProt P16619 24-93)
T4 sequence: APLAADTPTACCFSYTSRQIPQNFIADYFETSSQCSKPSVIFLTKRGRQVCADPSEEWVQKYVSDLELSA

CCL4L1_HUMAN = target: T5, CCL4L1_HUMAN (human, UniProt Q8NHW4 24-92)
T5 sequence: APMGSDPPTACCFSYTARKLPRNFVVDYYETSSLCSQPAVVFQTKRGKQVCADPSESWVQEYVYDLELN

CXCL1_HUMAN = target: T6, CXCL1_HUMAN (human, UniProt P09341 35-107)
T6 sequence: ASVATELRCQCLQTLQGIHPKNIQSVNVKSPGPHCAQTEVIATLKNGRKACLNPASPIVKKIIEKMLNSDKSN

CXCL3_HUMAN = target: T7, CXCL3_HUMAN (human, UniProt P19876 35-107)
T7 sequence: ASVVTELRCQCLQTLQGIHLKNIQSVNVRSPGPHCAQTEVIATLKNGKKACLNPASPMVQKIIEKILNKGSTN

CXCL7_HUMAN = target: T8, CXCL7_HUMAN (human, UniProt P02775 59-128)
T8 sequence: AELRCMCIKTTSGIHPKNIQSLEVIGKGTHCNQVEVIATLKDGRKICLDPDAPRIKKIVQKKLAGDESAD

CXCL8_HUMAN = target: T9, CXCL8_HUMAN (human, UniProt P10145 28-99)
T9 sequence: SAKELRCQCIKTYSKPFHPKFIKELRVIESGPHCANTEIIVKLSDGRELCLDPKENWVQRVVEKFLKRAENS

CXCL9_HUMAN = target: T10, CXCL9_HUMAN (human, UniProt Q07325 23-125)
T10 sequence: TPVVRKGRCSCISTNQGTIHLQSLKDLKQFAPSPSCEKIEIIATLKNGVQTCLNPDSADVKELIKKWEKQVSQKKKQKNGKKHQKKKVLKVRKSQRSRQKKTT

CXCL10_HUMAN = target: T11, CXCL10_HUMAN (human, UniProt P02778 22-98)
T11 sequence: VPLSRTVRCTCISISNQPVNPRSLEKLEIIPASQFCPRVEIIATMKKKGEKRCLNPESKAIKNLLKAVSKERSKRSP

CXCL11_HUMAN = target: T12, CXCL11_HUMAN (human, UniProt O14625 22-94)
T12 sequence: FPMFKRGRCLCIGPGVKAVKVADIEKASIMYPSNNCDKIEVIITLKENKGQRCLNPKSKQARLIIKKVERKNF

CXCL12_HUMAN = CXCL12_HUMAN (human, UniProt P48061 22-89)
CXCL12_HUMAN, sequence (P48061 22-89 limits assumed): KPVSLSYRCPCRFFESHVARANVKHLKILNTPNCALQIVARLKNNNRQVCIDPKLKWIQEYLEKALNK

CXCL2_HUMAN = target: T13, CXCL2_HUMAN (human, UniProt P19875 35-107)
T13 sequence: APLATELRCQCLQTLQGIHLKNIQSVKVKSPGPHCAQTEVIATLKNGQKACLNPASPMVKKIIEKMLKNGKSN

CXCL4_HUMAN = target: T14, CXCL4_HUMAN (human, UniProt P02776 32-101)
T14 sequence: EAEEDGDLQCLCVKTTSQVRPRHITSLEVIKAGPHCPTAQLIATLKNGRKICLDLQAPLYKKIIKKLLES

CXCL5_HUMAN = target: T15, CXCL5_HUMAN (human, UniProt P42830 41-114)
T15 sequence: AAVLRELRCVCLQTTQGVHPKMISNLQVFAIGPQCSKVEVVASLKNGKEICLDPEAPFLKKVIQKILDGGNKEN

CXCL6_HUMAN = target: T16, CXCL6_HUMAN (human, UniProt P80162 38-114)
T16 sequence: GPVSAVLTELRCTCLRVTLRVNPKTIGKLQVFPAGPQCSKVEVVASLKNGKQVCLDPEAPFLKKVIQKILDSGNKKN

CXCL13_HUMAN = target: T17, CXCL13_HUMAN (human, UniProt O43927 23-109)
T17 sequence: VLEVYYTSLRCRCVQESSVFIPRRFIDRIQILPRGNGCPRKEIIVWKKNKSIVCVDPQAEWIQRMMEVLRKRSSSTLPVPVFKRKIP

CXCL14_HUMAN = target: T18, CXCL14_HUMAN (human, UniProt O95715 35-111)
T18 sequence: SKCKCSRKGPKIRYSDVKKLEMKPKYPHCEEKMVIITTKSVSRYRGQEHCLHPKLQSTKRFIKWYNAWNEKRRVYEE
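For result in this document: biolayer interferometry of evasin binding to chemokines, association and dissociation rate constants fitted to derive Kd, RT is target residence time, fits with R² under 0.9 discarded.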

CCL11_HUMAN, sequence (P51671 24-97 limits assumed): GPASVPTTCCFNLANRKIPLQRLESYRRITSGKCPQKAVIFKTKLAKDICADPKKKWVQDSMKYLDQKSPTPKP

Row | Binder | Kd (CCL11_HUMAN) | RT (CCL11_HUMAN) | Kd (CCL18_HUMAN) | RT (CCL18_HUMAN) | Kd (CCL23_HUMAN) | RT (CCL23_HUMAN) | Kd (CCL27_HUMAN) | RT (CCL27_HUMAN) | Kd (CCL2_HUMAN) | RT (CCL2_HUMAN) | Kd (CCL3L1_HUMAN) | RT (CCL3L1_HUMAN) | Kd (CCL4L1_HUMAN) | RT (CCL4L1_HUMAN) | Kd (CXCL1_HUMAN) | RT (CXCL1_HUMAN) | Kd (CXCL3_HUMAN) | RT (CXCL3_HUMAN) | binding result (CXCL7_HUMAN) | Kd (CXCL8_HUMAN) | further results
1 | P991:G4S:P1156 (designed binder) ENGEGTTQPDYDNSTDYYNYEDFKCTCPAPHLNNTNGTVMKPIGCYYTCNVTRCTAPDTYPCYNLTEHQAKNLTTSPTTLCAVGNCDHGICVPNGTKELCFKAPNLEEGGGGSADDDNELFTVQYCGMNCTKDEGGTWTGCTGKKEGCKCYHESGKNYGLCLSTEYTDFSQYGNPSDSEIEAAKPKRSDTLSH | 1.39 nM | 30.6 min | 0.143 nM | 293 min | 5.13 nM | 35.2 min | 42.6 nM | 2.91 min | 24.8 nM | 4.02 min | 2.91 nM | 43.8 min | 1.24 nM | 38.3 min | 5.08 nM | 21 min | 89.9 nM | 3.28 min | no binding | 3.56 nM | RT (CXCL8_HUMAN): 36.8 min; binding result (CXCL9_HUMAN): no binding; binding result (CXCL10_HUMAN): no binding; binding result (CXCL11_HUMAN): no binding; binding result (CXCL12_HUMAN): no binding; RT (CXCL2_HUMAN): 2.32 min; binding result (CXCL4_HUMAN): no binding; RT (CXCL5_HUMAN): 2.32 min; binding result (CXCL6_HUMAN): no binding; binding result (CXCL13_HUMAN): no binding; binding result (CXCL14_HUMAN): no binding
2 | P1156:G4S:P991 (designed binder, also called two-warhead evasin) ADDDNELFTVQYCGMNCTKDEGGTWTGCTGKKEGCKCYHESGKNYGLCLSTEYTDFSQYGNPSDSEIEAAKPKRSDTLSHGGGGSENGEGTTQPDYDNSTDYYNYEDFKCTCPAPHLNNTNGTVMKPIGCYYTCNVTRCTAPDTYPCYNLTEHQAKNLTTSPTTLCAVGNCDHGICVPNGTKELCFKAPNLEE | 1.54 nM | 24.8 min | 0.201 nM | 182 min | 7 nM | 28.5 min | 36.2 nM | 3.4 min | 32.1 nM | 3.25 min | 3.09 nM | 34.7 min | 1.28 nM | 33.8 min | 2.72 nM | 30.3 min | 61.4 nM | 3.61 min | no binding | 1.5 nM | RT (CXCL8_HUMAN): 71.3 min; binding result (CXCL9_HUMAN): no binding; binding result (CXCL10_HUMAN): no binding; binding result (CXCL11_HUMAN): no binding; binding result (CXCL12_HUMAN): no binding; RT (CXCL2_HUMAN): 2.89 min; binding result (CXCL4_HUMAN): no binding; RT (CXCL5_HUMAN): 3.08 min; binding result (CXCL6_HUMAN): no binding; binding result (CXCL13_HUMAN): no binding; binding result (CXCL14_HUMAN): no binding
